Experimental data as given in the DeepSol protein solubility set.

Test: soluble on expression in E. coli; label from the status in PepcDB or PDB records

Sequence | soluble on expression in E. coli
MGSDKIHHHHHHMAKEEALAEAQLDSNRKKIQYRNNNISTQFVTPKYISLLIEKYWHEKNKFRRLLIVIECSKYKNESTIFFFRQVMSGEKDWFIRNYCLRILQRFDEVVYLPPKGKGAQEKYNTLVKHFGCDYKEDIGRTPEDIVKELYENDYIEHAKYFDAFISHAVSNADMVDEFVFKLNSLGLVAFVDWKSDRQDLNRSKLSHYTPTILELRMRQSKNLILIRTKESDLSSWVTWEINYFSKLGKKIAVLNLDNEHGKPHELIDTYPTVRIIDGNILVFNKSKQHKLVDWINES | not soluble
SIPWNLERITPPRYRADEYQPPDGGSLVEVYLLDTSIQSDHREIEGRVMVTDFENVPEEDGTRFHRQASKCDSHGTHLAGVVSGRDAGVAKGASMRSLRVLNCQGKGTVSGTLIGLEFIRKSQLVQPVGPLVVLLPLAGGYSRVLNAACQRLARAGVVLVTAAGNFRDDACLYSPASAPEVITVGATNAQDQPVTLGTLGTNFGRCVDLFAPGEDIIGASSDCSTCFVSQSGTSQAAAHVAGIAAMMLSAEPELTLAELRQRLIHFSAKDVINEAWFPEDQRVLTPNLVAALPPSTHGAGWQLFCRTVWSAHSGPTRMATAIARCAPDEELLSCSSFSRSGKRRGERMEAQGGKLVCRAHNAFGGEGVYAIARCCLLPQAACSVHTAPPAEASMGTRVHCHQQGHVLTGCSSHWEVEDLGTHKPPVLRPRGQPNQCVGHREASIHASCCHAPGLECKVKEHGIPAPQGQVTVACEEGWTLTGCSALPGTSHVLGAYAVDNTCVVRSRDVSTTGSTSEEAVTAVAICCRSRHLAQASQELQ | soluble
MKDGMRVGERFTHDFVVPPHKTVRHLYPESPEFAEFPEVFATGFMVGLMEWACVRAMAPYLEPGEGSLGTAICVTHTAATPPGLTVTVTAELRSVEGRRLSWRVSAHDGVDEIGSGTHERAVIHLEKFNAKVRQKTPAG | soluble
MGSDKIHHHHHHMKLRYIFYGLTSGLLFGLSSCSLNYDPIDTYSDVTEGVTDTGTKVVFKDKAAVESHLTTIYNQMRDRQEHWYVDLLLISDSHADNAYAGTTGAEVLPFENNSIEGSNSVLERDWNRYLEDVARANKLICNIDLVTDNSLTTAERAQYKAEAMIFRAMVMFDMVRLWGDFPVITTVADDITSENIEDVYEQYFPAQNTELEAYQQIEKDLLAAIQHAPDNTAGNKTLFTKSVARTLLAKIYAEKPLRDYSKVIRYCDEVKADGFELVKDFSDLFGMNAAGTDAKARNTKESILEAQFTPGSGNWCTWMFGRDLVNWNNNFTWAKWVTPSRDLINAFKKEGDQIRFQESVVYYDCNWSNYYPSDNYPFMYKCRSANSSIIKYRYADVLLLKAEALIMQDTPDLEAAAKIIDEVRERAGLGELSSSVRKDRDAMITALLNERRLELAFEGQRWFDLVRLDKVEEVMNAVYAKDSGRKSQVYAFDKNSYRLPIPQSVIDANDKIEQNPGY | not soluble
PVMHPHGAPPNHRPWQMKDLQAIKQEVSQAAPGSPQFMQTIRLAVQQFDPTAKDLQDLLQYLCSSLVASLHHQQLDSLISEAETRGITSYNPLAGPLRVQANNPQQQGLRREYQQLWLAAFAALPGSAKDPSWA | soluble
MTRPPAGTPYWDAAELPTQPQLHGVVTADVAVVGAGLAGLSCAYHLAERAPGLDIAVVDAEHPAAGASGRGTGLLGPRAGPAVDRAVRRFGPQTARRMHRASERAVRDVLALCARLDVPCGLRTGEQLVATRSSAGLAALARQARACRELGLDVPVLTPAGIRDRVGVPYRAALLHRPAATLDPAALTCALARACADKGVRFYGRSPLLALRPGDLVGPELVLPHGRLYAGQAVLAVNSAAQALDLPVGTVLPLEVYAVATEPLSAPAYEALGGRAGHAVVDAVPMAPYFRLLPDRGLVAGGGTATVPAGVGAPRLQAVRERAWSWLERWLRALHPDLARVRVTHRWSGRIGMTGDDLPVVGPVPGYDDVWYIGGCCGHGLALSVAHGAHVAAALLGEPEPGEPLPWHRSRAPRLPARGPAGPLLRAYVDAMGRIARHTCLEHHHHHH | not soluble
MNIAAVAGSPTGDMIEIGQHLRVRHFCYQTAKQRGDIGKIIRIAFAEVKFRCDSQIPLQRQTATNVADMFMHAKNFLHYNDHWQWAIALLWSGMVSRHVIPL | not soluble
MGSDKIHHHHHHMKTVTRYACQKCGYQSAKWLGKCPDCAAWNSFVEEVTGGGRKGAASLPAATRPVPICDVASEAETRLSCGISEFDRVLGGGLVSGSLVLIGGDPGIGKSTILLQVMDHLARTAGPVLYVSGEESARQTKMRGERLGIGARELLVLAETSLELILSQVTALAPRALVIDSIQTVFSANLESAPGSVSQVRECAGRLMELAKRNGIPTLLVGHVTKDGSLAGPRVLEHMVDTVLYFEGDPGHAFRILRAVKNRFGSTNEIGVFEMKEGGLSEVRNPSELFLAERPLGVSGSAVVTTIEGSRPLLVELQALVTPSSLGVPRRTTLGVDHNRLALLVAVLDKKVGLHLSGQDIFLNAAGGARLSEPAIDLGMVAALASSHLDKIIDPHTVIVGEVGLAGEVRAITQAETRVREAAKLGFTRAVIPAGSVRQVGDVPGMNVVGVKSLDEALEQLF | not soluble
MKFETLDFNDEKDIKNFKTDCGDLQDCFTALPCRPGSNNQLDKRLRSIEWVCKAIVFLTEDFSNCFDKLHEKNAECVQNWNPLPNEIYLEDDKMKVEKMKENACDTYFGKDDCVKKEIIERCGQEEWNTFRKVPN | not soluble
MASFVEMRKLAEAKVQNMIRTIVKPKEQNGNVEPKKEEDEKFESTYKQNENTQITPSSFGKRPLYSKVDINCDKWLMTLDEESRLKIDNPPSLVDGLSKETESELRYLGCELIQQGAILLKLPQTAAATGQILFQRYYYQKSFVRYHFEHAVQACLLLASKIEEEPRRPREVYNVFHRLERLHRLQQSGHDINKRLEAKHGSSILRCFG | not soluble
MSLSWLGNDDRRKKDPEVFQTVSDGLKKLYKTKLLPLEEYYRFHEFHSPALEDADFDNKPMVLLVGQYSTGKTTFIRYLLEQDFPGMRIGPEPTTDSFIAVMQGDVEGIIPGNALVVDPKKPFRKLNAFGNAFLNRFVCAQLPNAVLESISVIDTPGILSGEKQRISRGYDFAAVLEWFAERVDRIILLFDAHKLDISDEFSEVIKALKNHEDKMRVVLNKADQIETQQLMRVYGALMWSLGKIVNTPEVIRVYIGSFWSHPLLIPDNRKLFEAEEQDLFRDIQSLPRNAALRKLNDLIKRARLAKVHAYIISSLKKEMPSVFGKDTKKKELVNNLAEIYGRIEREHQISPGDFPNLKKMQDQLQAQDFSKFQPLKSKLLEVVDDMLAHDIAQLMVLVRQEETQRPVQMVKGGAFEGTLQGPFGHGYGEGAGEGIDDAEWVVARDKPMYDEIFYTLSPVDGKITGANAKKEMVRSKLPNSVLGKIWKLADIDKDGMLDDEEFALANHLIKVKLEGHELPSELPAHLLPPYKRKVSEGHHHHHH | soluble
MLYQSETLQLHWLENGIAELVFDAPGSVNKLDTKTVANLGEALNVLEKQSELKGLLLRSAKTALIVGADITEFLSLFNAPPEKLHQWLVFANTIFNRLEDLPVPTISAINGYALGGGCECILATDFRIASPEARIGLPETKLGIMPGFGGSVRLPRLLGADSALEIIATGKDVTANDALKIGLVDAVVDPEKLVGSALTMLKQAIDGKLDWQAARRPKLEPLKLNPTEAAMCFTIAKGRVMQVAGKHYPAPLTAVKTIEAAAKFGRTEALNLETNSFVPLAGSNEARALVGIFLNDQYVKAQAKKLSKGVAAPKLAAVLGAGIMGGGIAYQSALKSVPVIMKDINENSLDLGMNEAAKLLNKQLERGKVDGLKMASILATIRPTLDYAGIERAQVIVEAVVENPKVKAAVLAEVEALIGEDTVLASNTSTIPIDQLAKSLKRPENFCGMHFFNPVHRMPLVEIIRGAKTSDKTLAAVVAYATQMGKTPIVVNDCPGFFVNRVLFPYLAGFGMLVRDGGDFHQIDKVMEKQFGWPMGPAYLLDVVGIDTAHHAQAVMAAGFPERMNKDYRDAVDVMFDNQRFGQKNGQGFYRYTQDAKGKPRKENDEQVDKLLAEISQPLQEFSDEDIIARTMIPMINEVVRCLEEGIIASAAEGDMALVYGLGFPPFHGGVFRYLDTLGSANYVEMAQRYAHLGALYHVPAGLRAKAEHNESYYPVAAALLDVSTNQPA | not soluble
MITIEKYSPERHEQTCELSVLEEQSQFTVADVGEMLTRLEPTELPHLILADDDVVGFFLFDAAYSEKYDFCPKNSLGVRALLVDHRHQGKGIAKQAIQQFADFAKHHYPEFDALYLTVNCRNIPAYQCYLKSGFEDTNELYHGGPVGPQHIMRQPL | not soluble
MNEYKKEIKISVRNLVEFVLRTGDIDSSFTGSSRAVEGTRLHKKIQKTQGKEYSPEVFLKTTVEFDDFFLTVEGRADGVINEDGCFIIDEIKTTTAPLELIDEFYNPLHWAQAKCYAYIHALNENLEKIKIRLTYCHLETEEIKYLVSEFDFAELSRFFEELVEKYYVWAKLACDWQVKRDCSIKVLEFPFEKYRKGQRKLAVAVYKTVTEGKKLYVKAPTGIGKTISTLFPAVKAIGEGHASKIFYLTAKTVTGGVAKEAFAKMRQKGLLFKTVTLTAKEKICFMEKAVCKPEKCEYAKGHFDRVNEAIMDILTNEDEIKREVIEEYAKAHRVCPFELALDLTIWADAVICDYNYVFDPRVYLKRFFSDAGGDYIFLVDEAHNLVDRAREMFSAQLSKKSFLELKKAMKEESPKISKTLQKLNTFMLGMKKLCGDNDYFVSKEEQSEIYLLLRRLIGECEEYLTDRAKNGIENEDLLQLYFDALMYVRIAEFYDDRYVTFVEKSDNDVRIKLFCIDPSHLLSEALKRGKAAVFFSATLLPLSYFKEVLGGGPDDYTMCLDSPFEVNNRCLMIADRISTRYQDRGKSCDEVVQCIKSIVCAKKGNYIAFFPSYQYMNMIYELFEKECGDIKLYVQSSSMTEKEREDFLERFKADPQETVLGFCVLGGIFSEGIDLRDDRLIGAIIVGVGLPQICIERDIIRDYYQNKNRLGFEYSYMYPGMNKVMQAAGRVIRSENDKGVILLIDDRFTNPSYLALFPNEWFPYIRVTGNNISEHVKKFWSRHGA | soluble
MGHHHHHHSHSMGVRSMATFVKTADVSILIDPGVSLAPKRYRLPPHRIEIERMNQKWEEIKEMMKKAEVAIITHYHYDHHDPNEVEIFSGKKLLLKHPTEKINRSQKGRAAYFLEQLKSVDVEIDYCDGKSYEFGNTVVELSKPVFHGADSRLGFVVEVYVEDGKSSFLFSSDVEGPNNEEQLAFMLEKSAEVVFIDGPMTYMLGYRFSQKSFESSVENLKRLIAEDVKTLVLDH | soluble
NLSASNRALPVLTLFTKAPCPLCDEAKEVLQPYKDRFILQEVDITLPENSTWYERYKFDIPVFHLNGQFLMMHRVNTSKLEKQLRKL | soluble
MGSDKIHHHHHHLIIDANIYWLPNEIFVSEEMTNHFLRVVPREYGVYAYQREKNKNEREFVIEKPEGSENLNYFQGDYDLSVQLENMDQAGVDTGVMKLPGCQEWLDLDLCIQFNNQMAETVKKSKGRFRALAVVPPSGDADTLRELKRCIKELHMNGLQLSAHYGNKYLDDPMFRPLLKCASDLNIPVYVHHTPVPVEYNSLADYNNLRRSYGRCEDQTIAVTREIFSGMFKELPNLKMIHSMLGGGYFAYKNMFFPNDSGHGRFDANTSDVARSLKDNIYFEMSHAQPWGKAELKCAVEVLGADHIIYGSSYPVKKDWLIGGPQYVGDLPISQDEKDMLLFKNAERIYGIK | not soluble
MGSDKIHHHHHHMNLNALIDFMLVANNEGLGKASRASGISKATLSRRIADLEEQLGVRLIERSARGLKLTEAGEMLMARTEGPLGEVAEAMTATRDGVATPRGRLRVASPVLFSQLAMGRIGAGFYAAYPEVIIEVTAEDRLVDLVEEQFDVAIRINPDPDSRLVGRCFARDRLVVVAAPELPRPMPGAIRQTPAIVTSSFQPTHWKLDNGHLVLKPIPKLWFSSLMMVRDAAVAGGGAALIPQSIAWSQLASGQLVQWGTVSGAEPELWVLHTSRRLVSPKVRAFVDFICASNPDMSLVLKG | not soluble
